From US20020115843A1 come the findings set out here.

Common to all, as to test: cell-based or functional assay
Assay [1] has as its target dipeptidyl peptidase IV (DPPIV) (UniProt P27487).
In assay [2] the target is myc-His tagged DPRP-1 (expressed from pcDNA-MycHis-DPRP1) (human) (UniProt Q6V1X1).
Assay [3] has as its target myc-His tagged DPRP-2 (expressed from pcDNA-MycHis-DPRP2) (human) (UniProt Q86TI2).

myc-His tagged DPRP-2 (expressed from pcDNA-MycHis-DPRP2) (human), sequence (Q86TI2 whole entry): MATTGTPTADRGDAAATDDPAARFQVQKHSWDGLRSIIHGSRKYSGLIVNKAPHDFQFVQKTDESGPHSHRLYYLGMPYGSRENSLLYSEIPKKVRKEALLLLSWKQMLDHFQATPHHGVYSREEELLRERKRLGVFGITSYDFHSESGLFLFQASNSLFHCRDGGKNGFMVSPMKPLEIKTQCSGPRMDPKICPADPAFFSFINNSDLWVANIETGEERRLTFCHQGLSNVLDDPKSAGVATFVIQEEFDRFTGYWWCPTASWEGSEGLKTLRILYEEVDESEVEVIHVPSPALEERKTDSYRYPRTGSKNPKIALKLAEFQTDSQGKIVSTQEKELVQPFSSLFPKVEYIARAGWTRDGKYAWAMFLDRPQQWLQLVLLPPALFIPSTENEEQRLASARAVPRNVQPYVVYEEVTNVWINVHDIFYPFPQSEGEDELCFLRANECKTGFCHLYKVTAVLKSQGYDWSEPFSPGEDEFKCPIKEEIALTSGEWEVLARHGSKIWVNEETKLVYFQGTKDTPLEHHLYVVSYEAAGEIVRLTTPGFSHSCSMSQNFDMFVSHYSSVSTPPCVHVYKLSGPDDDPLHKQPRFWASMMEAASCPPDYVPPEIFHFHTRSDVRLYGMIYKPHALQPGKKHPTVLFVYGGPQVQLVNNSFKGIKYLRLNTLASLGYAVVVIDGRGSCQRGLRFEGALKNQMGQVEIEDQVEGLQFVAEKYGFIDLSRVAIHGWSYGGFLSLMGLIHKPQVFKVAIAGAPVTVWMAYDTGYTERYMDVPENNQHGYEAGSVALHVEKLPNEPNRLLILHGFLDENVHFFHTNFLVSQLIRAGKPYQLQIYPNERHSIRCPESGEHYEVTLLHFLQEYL
myc-His tagged DPRP-1 (expressed from pcDNA-MycHis-DPRP1) (human), sequence (Q6V1X1 17-898): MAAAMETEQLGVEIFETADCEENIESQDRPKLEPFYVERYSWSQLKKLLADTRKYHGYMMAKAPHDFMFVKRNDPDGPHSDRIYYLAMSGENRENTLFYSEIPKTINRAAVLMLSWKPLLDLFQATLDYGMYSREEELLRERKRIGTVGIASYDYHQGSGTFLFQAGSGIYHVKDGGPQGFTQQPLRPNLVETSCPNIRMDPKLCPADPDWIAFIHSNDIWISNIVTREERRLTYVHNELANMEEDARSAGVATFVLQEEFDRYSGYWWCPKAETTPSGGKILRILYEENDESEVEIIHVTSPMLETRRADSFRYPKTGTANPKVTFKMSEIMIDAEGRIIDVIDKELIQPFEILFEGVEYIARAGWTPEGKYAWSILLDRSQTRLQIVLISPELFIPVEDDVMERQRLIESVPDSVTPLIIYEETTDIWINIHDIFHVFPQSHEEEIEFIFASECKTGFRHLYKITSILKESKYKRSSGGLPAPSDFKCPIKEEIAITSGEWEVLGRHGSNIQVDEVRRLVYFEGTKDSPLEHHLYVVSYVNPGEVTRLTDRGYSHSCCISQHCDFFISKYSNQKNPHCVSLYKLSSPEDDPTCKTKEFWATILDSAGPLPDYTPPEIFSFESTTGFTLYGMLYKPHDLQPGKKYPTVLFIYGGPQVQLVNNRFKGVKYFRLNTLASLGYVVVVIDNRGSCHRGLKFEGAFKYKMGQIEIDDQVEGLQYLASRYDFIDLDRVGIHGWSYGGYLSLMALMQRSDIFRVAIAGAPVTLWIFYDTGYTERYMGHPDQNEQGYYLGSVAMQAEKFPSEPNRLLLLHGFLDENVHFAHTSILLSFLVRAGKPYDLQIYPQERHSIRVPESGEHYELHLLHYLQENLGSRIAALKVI
dipeptidyl peptidase IV (DPPIV), sequence (P27487 39-766 limits assumed): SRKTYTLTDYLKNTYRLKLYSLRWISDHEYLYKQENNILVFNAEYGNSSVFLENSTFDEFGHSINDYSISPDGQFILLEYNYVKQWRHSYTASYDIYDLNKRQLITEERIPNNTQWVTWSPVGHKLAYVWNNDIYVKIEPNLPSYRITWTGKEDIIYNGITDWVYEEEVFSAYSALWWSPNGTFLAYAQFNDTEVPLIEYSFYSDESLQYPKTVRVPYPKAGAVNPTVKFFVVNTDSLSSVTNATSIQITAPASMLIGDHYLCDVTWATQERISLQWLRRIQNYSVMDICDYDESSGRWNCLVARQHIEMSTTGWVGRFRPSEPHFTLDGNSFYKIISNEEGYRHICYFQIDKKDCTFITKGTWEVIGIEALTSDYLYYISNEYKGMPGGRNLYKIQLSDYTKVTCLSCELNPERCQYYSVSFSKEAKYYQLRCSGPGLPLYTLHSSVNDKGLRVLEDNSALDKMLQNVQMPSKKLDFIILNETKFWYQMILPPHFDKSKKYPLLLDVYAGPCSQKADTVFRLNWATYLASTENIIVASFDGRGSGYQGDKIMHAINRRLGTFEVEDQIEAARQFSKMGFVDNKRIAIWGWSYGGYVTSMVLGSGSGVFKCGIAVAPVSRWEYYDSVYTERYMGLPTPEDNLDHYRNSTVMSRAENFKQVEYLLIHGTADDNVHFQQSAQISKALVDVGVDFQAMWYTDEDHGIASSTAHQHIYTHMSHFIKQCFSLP

Take Leupeptin (peptide): the results for the Residual activity (% of control), Ala-Pro-AMC cleavage, inhibitor at 50 µg/ml in assay [1], in assay [2] and in assay [3] were 90.7 % of control, 91.1 % of control and 90.4 % of control, respectively.

Consider Pepstatin (peptide), for which the Residual activity (% of control), Ala-Pro-AMC cleavage, inhibitor at 2 µg/ml was 93.5 % of control in assay [1], 97.3 % of control in assay [2] and 95 % of control in assay [3].
